Columns and labels:
[1] = target: T1, Fibrinogen Fragment X (human, UniProt P02671 20-238; P02675 73-491; P02679 27-437, limits assumed); assay: BLI Octet Red96e, biotinylated antibody on streptavidin tips; KD grade + = >=10^-8 M
T1 construct: domain: Fibrinogen Fragment X; Made in-house by digesting purified human fibrinogen with plasmin, then purified by SEC; also called X (Fibrinogen)
T1 sequence (looked up) 1: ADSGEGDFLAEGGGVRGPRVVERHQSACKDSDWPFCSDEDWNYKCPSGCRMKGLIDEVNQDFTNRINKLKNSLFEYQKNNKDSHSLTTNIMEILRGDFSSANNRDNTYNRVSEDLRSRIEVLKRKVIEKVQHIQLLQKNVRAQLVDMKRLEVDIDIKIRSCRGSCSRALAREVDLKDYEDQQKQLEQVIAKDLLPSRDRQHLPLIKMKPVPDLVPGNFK
T1 sequence (looked up) 2: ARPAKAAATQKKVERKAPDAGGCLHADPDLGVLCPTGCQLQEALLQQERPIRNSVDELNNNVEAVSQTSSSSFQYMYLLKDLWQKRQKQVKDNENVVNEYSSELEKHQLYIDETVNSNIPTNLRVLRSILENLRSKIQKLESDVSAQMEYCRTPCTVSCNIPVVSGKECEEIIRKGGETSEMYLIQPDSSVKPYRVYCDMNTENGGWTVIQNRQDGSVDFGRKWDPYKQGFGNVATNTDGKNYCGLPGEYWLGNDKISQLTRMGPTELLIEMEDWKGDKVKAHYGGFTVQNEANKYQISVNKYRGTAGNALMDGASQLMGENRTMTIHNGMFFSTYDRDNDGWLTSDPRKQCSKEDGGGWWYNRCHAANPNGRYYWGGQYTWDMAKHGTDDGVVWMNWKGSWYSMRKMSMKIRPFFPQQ
T1 sequence (looked up) 3: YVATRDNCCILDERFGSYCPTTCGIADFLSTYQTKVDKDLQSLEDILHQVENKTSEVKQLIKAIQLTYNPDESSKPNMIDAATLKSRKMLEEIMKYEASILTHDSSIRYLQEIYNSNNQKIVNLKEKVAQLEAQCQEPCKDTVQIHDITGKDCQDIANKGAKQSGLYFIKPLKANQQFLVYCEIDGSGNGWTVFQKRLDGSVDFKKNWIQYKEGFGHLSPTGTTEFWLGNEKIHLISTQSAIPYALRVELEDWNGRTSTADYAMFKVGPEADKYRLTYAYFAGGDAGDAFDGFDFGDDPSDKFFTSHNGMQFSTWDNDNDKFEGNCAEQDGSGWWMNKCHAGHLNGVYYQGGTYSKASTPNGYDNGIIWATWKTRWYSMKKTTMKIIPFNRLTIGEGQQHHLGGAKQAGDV
Experimental: (§1) The same set of mAbs were subjected to binding studies with fibrinogen, D-Dimer, and purified fibrin and fibrinogen fragments (see Table 2) using the BLI Octet Red96e system from Sartorius. KD was measured by loading biotinylated antibody samples on streptavidin BLI tips and introducing serial dilutions of prepared fragments. […] The experiments were conducted at room temperature and pressure.

[2] = target: T2, Fibrinogen Fragment Y (human, UniProt P02671 20-225; P02675 73-491; P02679 27-437, limits assumed); assay: as above
T2 construct: domain: Fibrinogen Fragment Y; Made in-house by digesting purified human fibrinogen with plasmin, then purified by SEC; also called Y (Fibrinogen)
T2 sequence (looked up) 1: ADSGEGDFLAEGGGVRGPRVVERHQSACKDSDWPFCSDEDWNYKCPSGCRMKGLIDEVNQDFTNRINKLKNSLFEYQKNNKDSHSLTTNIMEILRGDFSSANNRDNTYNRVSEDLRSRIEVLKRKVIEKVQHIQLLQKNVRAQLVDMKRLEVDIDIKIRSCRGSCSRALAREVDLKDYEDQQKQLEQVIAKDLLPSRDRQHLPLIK
T2 sequence (looked up) 2: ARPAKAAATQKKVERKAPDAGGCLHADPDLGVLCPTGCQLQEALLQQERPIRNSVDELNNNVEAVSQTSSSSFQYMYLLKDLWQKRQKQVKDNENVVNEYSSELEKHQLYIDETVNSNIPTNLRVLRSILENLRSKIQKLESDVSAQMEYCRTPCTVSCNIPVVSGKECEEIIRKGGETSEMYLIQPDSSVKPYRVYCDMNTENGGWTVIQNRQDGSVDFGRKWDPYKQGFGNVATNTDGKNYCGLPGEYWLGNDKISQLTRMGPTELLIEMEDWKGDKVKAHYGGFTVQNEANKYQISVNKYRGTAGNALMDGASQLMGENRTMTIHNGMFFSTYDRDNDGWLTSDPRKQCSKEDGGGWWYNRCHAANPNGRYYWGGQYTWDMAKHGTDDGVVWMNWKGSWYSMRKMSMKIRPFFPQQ
T2 sequence (looked up) 3: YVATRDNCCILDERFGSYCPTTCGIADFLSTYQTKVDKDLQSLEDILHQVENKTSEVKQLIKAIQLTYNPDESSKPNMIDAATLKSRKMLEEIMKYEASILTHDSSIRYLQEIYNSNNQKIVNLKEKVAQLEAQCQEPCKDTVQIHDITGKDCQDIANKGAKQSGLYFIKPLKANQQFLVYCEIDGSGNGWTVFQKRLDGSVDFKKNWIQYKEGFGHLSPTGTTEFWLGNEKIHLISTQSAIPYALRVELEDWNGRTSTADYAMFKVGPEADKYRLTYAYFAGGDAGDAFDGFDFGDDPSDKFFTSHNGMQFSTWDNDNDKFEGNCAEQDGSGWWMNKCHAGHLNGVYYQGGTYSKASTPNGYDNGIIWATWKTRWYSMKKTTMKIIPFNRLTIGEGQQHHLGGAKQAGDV
Experimental: as §1

[3] = target: T3, Fibrinogen Fragment D (human, UniProt P02671 124-216; P02675 164-491; P02679 89-437, limits assumed); assay: as above
T3 construct: domain: Fibrinogen Fragment D; Made in-house by digesting purified human fibrinogen with plasmin, then purified by SEC; also called fragment D from fibrinogen; D (Fibrinogen)
T3 sequence (looked up) 1: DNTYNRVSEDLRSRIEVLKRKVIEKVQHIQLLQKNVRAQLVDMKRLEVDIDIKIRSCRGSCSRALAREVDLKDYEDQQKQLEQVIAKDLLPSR
T3 sequence (looked up) 2: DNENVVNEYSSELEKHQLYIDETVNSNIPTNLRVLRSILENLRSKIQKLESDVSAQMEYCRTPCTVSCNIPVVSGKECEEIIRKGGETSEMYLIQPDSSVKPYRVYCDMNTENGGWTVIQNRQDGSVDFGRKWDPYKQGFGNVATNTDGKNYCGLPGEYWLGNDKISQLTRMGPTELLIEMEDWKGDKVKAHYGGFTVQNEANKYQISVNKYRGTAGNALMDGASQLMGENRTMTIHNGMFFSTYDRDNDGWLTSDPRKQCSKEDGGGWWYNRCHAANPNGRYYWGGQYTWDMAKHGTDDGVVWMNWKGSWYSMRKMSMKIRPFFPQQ
T3 sequence (looked up) 3: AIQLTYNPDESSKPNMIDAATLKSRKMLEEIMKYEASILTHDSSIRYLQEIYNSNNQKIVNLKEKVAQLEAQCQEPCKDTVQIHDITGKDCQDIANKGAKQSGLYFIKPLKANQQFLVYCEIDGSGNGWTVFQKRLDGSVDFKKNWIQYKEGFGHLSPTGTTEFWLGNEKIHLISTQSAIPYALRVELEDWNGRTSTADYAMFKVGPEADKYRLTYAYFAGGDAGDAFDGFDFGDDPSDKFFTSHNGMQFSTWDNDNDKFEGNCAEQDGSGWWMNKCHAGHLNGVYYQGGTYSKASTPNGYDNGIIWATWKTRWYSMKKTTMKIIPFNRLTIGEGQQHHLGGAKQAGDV
Experimental: as §1

[4] = target: T4, Fragment E (human, UniProt P02671 20-97; P02675 84-152; P02679 27-79, limits assumed); assay: BLI Octet, Example 4, FIG. 5
T4 construct: domain: Fragment E
T4 sequence (looked up) 1: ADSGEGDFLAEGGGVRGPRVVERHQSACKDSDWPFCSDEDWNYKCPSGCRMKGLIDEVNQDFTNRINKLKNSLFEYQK
T4 sequence (looked up) 2: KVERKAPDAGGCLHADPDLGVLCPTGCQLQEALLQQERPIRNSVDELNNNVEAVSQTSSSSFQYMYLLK
T4 sequence (looked up) 3: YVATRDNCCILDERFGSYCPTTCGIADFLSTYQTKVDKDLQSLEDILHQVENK

[5] = target: T5, Fragment E from fibrin (UniProt P02671 36-97; P02675 84-152; P02679 27-88, limits assumed); assay: BLI Octet Red96e, biotinylated antibody on streptavidin tips
T5 construct: domain: Fragment E from fibrin; also called E (Fibrin)
T5 sequence (looked up) 1: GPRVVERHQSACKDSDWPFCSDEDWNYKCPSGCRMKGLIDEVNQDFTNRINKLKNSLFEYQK
T5 sequence (looked up) 2: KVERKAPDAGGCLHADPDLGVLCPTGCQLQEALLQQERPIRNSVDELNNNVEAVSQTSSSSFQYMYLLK
T5 sequence (looked up) 3: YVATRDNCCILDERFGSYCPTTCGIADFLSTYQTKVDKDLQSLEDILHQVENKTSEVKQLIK

[6] = target: T6, Fragment E from fibrinogen (UniProt P02671 20-97; P02675 84-152; P02679 27-79, limits assumed); assay: as above
T6 construct: domain: Fragment E from fibrinogen; also called E (Fibrinogen)
T6 sequence (looked up) 1: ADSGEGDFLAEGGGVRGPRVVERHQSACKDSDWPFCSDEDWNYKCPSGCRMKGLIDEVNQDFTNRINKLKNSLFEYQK
T6 sequence (looked up) 2: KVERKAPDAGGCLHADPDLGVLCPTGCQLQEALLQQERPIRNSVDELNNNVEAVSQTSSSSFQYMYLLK
T6 sequence (looked up) 3: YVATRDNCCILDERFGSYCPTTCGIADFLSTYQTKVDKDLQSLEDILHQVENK

B1: recombinant antibody #12 (antibody, V domains shown)
VH: QVQLQQPGAEVVRPGASVKLSCKASGYSFTSYWIHWLKQGPHQGLEWIGRIDPDDSETHYNQKFKDKALLTVDKSSSTAYMQLRSLTSEDSAVYYCARTNWDAWFAYWGQGTLVTVSA
VL: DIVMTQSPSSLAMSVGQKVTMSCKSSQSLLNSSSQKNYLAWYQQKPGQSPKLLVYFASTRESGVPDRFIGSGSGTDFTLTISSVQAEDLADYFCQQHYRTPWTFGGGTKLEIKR
notes: The heavy chain is truncated after the murine IgG2a hinge and has no Fc; also called Ab#12; Ab#12 (Grifols)
KD [1]: ≥ 10 nM | KD [2]: ≥ 10 nM | KD [3]: ≥ 10 nM | binding result [4]: no binding | binding result [5]: no binding | binding result [6]: no binding

Source: US20230082465A1 (Hoffmann-La Roche, published 2023)
